Data as given in the supplement of paper PMC11246515.
± gives the standard deviation of the averaged measurements.

Assay: total protein half-life in vivo (active degradation + dilution); higher = more stable protein
[1] = E. coli NCM3722 delta-clpP delta-lon delta-hslV, growth: N-lim chemostat, doubling time 6 h
[2] = E. coli NCM3722 delta-clpP, growth: N-lim chemostat, doubling time 6 h
[3] = E. coli NCM3722 delta-hslV, growth: N-lim chemostat, doubling time 6 h
[4] = E. coli NCM3722 delta-lon, growth: N-lim chemostat, doubling time 6 h
[5] = E. coli NCM3722 delta-smpB, growth: N-lim chemostat, doubling time 6 h
[6] = wild type E. coli NCM3722, growth: C-lim chemostat, doubling time 3 h
[7] = wild type E. coli NCM3722, growth: C-lim chemostat, doubling time 6 h
[8] = wild type E. coli NCM3722, growth: C-lim chemostat, doubling time 12 h
[9] = wild type E. coli NCM3722, growth: N-lim chemostat, doubling time 6 h
[10] = wild type E. coli NCM3722, growth: N-lim chemostat, doubling time 12 h
[11] = wild type E. coli NCM3722, growth: P-lim chemostat, doubling time 6 h
[12] = wild type E. coli NCM3722, growth: P-lim chemostat, doubling time 12 h

Sequence	total protein half-life in vivo [1] [h]	total protein half-life in vivo [2] [h]	total protein half-life in vivo [3] [h]	total protein half-life in vivo [4] [h]	total protein half-life in vivo [5] [h]	total protein half-life in vivo [6] [h]	total protein half-life in vivo [7] [h]	total protein half-life in vivo [8] [h]	total protein half-life in vivo [9] [h]	total protein half-life in vivo [10] [h]	total protein half-life in vivo [11] [h]	total protein half-life in vivo [12] [h]
MKKILLMLSLLFFTTAGFSEVSDTLVTGGYDKQAMSDAIKHARKETDKFIEVMNKKDADTFAVKAPITDHGRTEHFWLTDVTYSNGMFIGVISNDPGIVTNVEYGQEWKIKKEDISDWMYTRGDKIYGGYTIDPLLVTYPKEEADELRAKLVR	3.76	4.8	4.78 ± 1.5	5.28	4.01 ± 0.41	2.2	5.15 ± 0.19	6.65	4.65	7.64	3.47 ± 0.23	5.28 ± 1.1
MRTLQGWLLPVFMLPMAVYAQEATVKEVHDAPAVRGSIIANMLQEHDNPFTLYPYDTNYLIYTQTSDLNKEAIASYDWAENARKDEVKFQLSLAFPLWRGILGPNSVLGASYTQKSWWQLSNSEESSPFRETNYEPQLFLGFATDYRFAGWTLRDVEMGYNHDSNGRSDPTSRSWNRLYTRLMAENGNWLVEVKPWYVVGNTDDNPDITKYMGYYQLKIGYHLGDAVLSAKGQYNWNTGYGGAELGLSYPITKHVRLYTQVYSGYGESLIDYNFNQTRVGVGVMLNDLF [P0A921]	6.42 ± 0.11	6.15 ± 0.48		7.24 ± 0.85	5.96 ± 0.66	3.01 ± 0.048	6.37 ± 1.1	14.2 ± 0.33	6.28 ± 0.44	13.3 ± 0.75	6.13 ± 0.1	14.2 ± 0.75
MTNITLQKQHRTLWHFIPGLALSAVITGVALWGGSIPAVAGAGFSALTLAILLGMVLGNTIYPHIWKSCDGGVLFAKQYLLRLGIILYGFRLTFSQIADVGISGIIIDVLTLSSTFLLACFLGQKVFGLDKHTSWLIGAGSSICGAAAVLATEPVVKAEASKVTVAVATVVIFGTVAIFLYPAIYPLMSQWFSPETFGIYIGSTVHEVAQVVAAGHAISPDAENAAVISKMLRVMMLAPFLILLAARVKQLSGANSGEKSKITIPWFAILFIVVAIFNSFHLLPQSVVNMLVTLDTFLLAMAMAALGLTTHVSALKKAGAKPLLMALVLFAWLIVGGGAINYVIQSVIA		2.86										
MILTPIRRYGAMILMLLTLVFSSEVLAKTHTTTASQKSHLTKASNKQVSSKQEYSRNSAKSSSLPDLRKYPSGTPRKKAFLRTVMPYITSQNAAITAERNWLISKQYQGQWSPAERARLKDIAKRYKVKWSGNTRKIPWNTLLERVDIIPTSMVATMAAAESGWGTSKLARNNNNLFGMKCMKGRCTNAPGKVKGYSQFSSVKESVSAYVTNLNTHPAYSSFRKSRAQLRKADQEVTATAMIHKLKGYSTKGKSYNNYLFAMYQDNQRLIAAHM	0.848				3.76 ± 0.26	1.22	2.47 ± 0.18	5.88 ± 0.34				
MSHQKIIQDLIAWIDEHIDQPLNIDVVAKKSGYSKWYLQRMFRTVTHQTLGDYIRQRRLLLAAVELRTTERPIFDIAMDLGYVSQQTFSRVFRRQFDRTPSDYRHRL [P0A9E2]	6.13 ± 1.3											
MFLAQEIIRKKRDGHALSDEEIRFFINGIRDNTISEGQIAALAMTIFFHDMTMPERVSLTMAMRDSGTVLDWKSLHLNGPIVDKHSTGGVGDVTSLMLGPMVAACGGYIPMISGRGLGHTGGTLDKLESIPGFDIFPDDNRFREIIKDVGVAIIGQTSSLAPADKRFYATRDITATVDSIPLITASILAKKLAEGLDALVMDVKVGSGAFMPTYELSEALAEAIVGVANGAGVRTTALLTDMNQVLASSAGNAVEVREAVQFLTGEYRNPRLFDVTMALCVEMLISGKLAKDDAEARAKLQAVLDNGKAAEVFGRMVAAQKGPTDFVENYAKYLPTAMLTKAVYADTEGFVSEMDTRALGMAVVAMGGGRRQASDTIDYSVGFTDMARLGDQVDGQRPLAVIHAKDENNWQEAAKAVKAAIKLADKAPESTPTVYRRISE	5.35 ± 0.43	5.92 ± 0.45	5.18 ± 0.25	5.58 ± 0.26	5.29 ± 0.068	3.127 ± 0.0038	5.78 ± 0.25		5.36 ± 0.13	10.4 ± 1.3	6.07 ± 0.16	13.1 ± 1.6
MENKYSRLQISIHWLVFLLVIAAYCAMEFRGFFPRSDRPLINMIHVSCGISILVLMVVRLLLRLKYPTPPIIPKPKPMMTGLAHLGHLVIYLLFIALPVIGLVMMYNRGNPWFAFGLTMPYASEANFERVDSLKSWHETLANLGYFVIGLHAAAALAHHYFWKDNTLLRMMPRKRS [P0ABE5]	7.28	5.78	6.32		5.9	2.81 ± 0.06	5.31	14.8		10.6		11.9
MRQVLSSLLVIAGLVSGQAIAAPESPPHADIRDSGFVYCVSGQVNTFNPSKASSGLIVDTLAAQFYDRLLDVDPYTYRLMPELAESWEVLDNGATYRFHLRRDVPFQKTDWFTPTRKMNADDVVFTFQRIFDRNNPWHNVNGSNFPYFDSLQFADNVKSVRKLDNHTVEFRLAQPDASFLWHLATHYASVMSAEYARKLEKEDRQEQLDRQPVGTGPYQLSEYRAGQFIRLQRHDDFWRGKPLMPQVVVDLGSGGTGRLSKLLTGECDVLAWPAASQLSILRDDPRLRLTLRPGMNVAYLAFNTAKPPLNNPAVRHALALAINNQRLMQSIYYGTAETAASILPRASWAYDNEAKITEYNPAKSREQLKSLGLENLTLKLWVPTRSQAWNPSPLKTAELIQADMAQVGVKVVIVPVEGRFQEARLMDMSHDLTLSGWATDSNDPDSFFRPLLSCAAIHSQTNLAHWCDPKFDSVLRKALSSQQLAARIEAYDEAQSILAQELPILPLASSLRLQAYRYDIKGLVLSPFGNASFAGVYREKQDEVKKP			6.48 ± 0.7	6.22 ± 0.64	5.939 ± 0.032	3.129 ± 0.013	5.88 ± 0.23	11.05 ± 0.028	6.39 ± 0.57	13.5 ± 0.91	6.18 ± 0.2	12 ± 1.2
